Source: publication doi:10.1101/2020.11.26.400622 (bioRxiv, 2020)

B1: circularly permuted human Taspase1 cp-Taspase1_(α41-233/β) (enzyme)
chain: TVGAVVVDHEGNVAAAVSSGGLALKHPGRVGQAALYGCGCWAENTGAHNPYSTAVSTSGCGEHLVRTILARECSHALQAEDAHQALLETMQNKFISSPFLASEDGVLGGVIVLRSCRCSAEPDSSQNKQTLLVEFLWSHTTESMCVGYMSAQDGKAKTHISRLPPGAVAGQSVAIEGGVCRLEGSGSGGFVLVHAGAGYHSESKAKEYKHVCKRACQKAIEKLQAGALATDAVTAALVELEDSPFTNAGMGSNLNLLGEIECDASIMDGKSLNFGAVGALSGIKNPVSVANRLLCEGQKGKLSAGRIPPCFLVGEGAYRWAVDHGIPSCPPNIMTTRFSLAAFKRNKRKLELAERVDTDFMQLKKRRQSSEKENDSGTLD
B2: circularly permuted human Taspase1 cp-Taspase1_(α41-183/β) (enzyme)
chain: TVGAVVVDHEGNVAAAVSSGGLALKHPGRVGQAALYGCGCWAENTGAHNPYSTAVSTSGCGEHLVRTILARECSHALQAEDAHQALLETMQNKFISSPFLASEDGVLGGVIVLRSCRCSAEPDSSQNKQTLLVEFLWSHTTESMCVGYMSAQDGKAKTHISRLPPGAVAGQSVAIEGGVCRLEGSGSGGFVLVHAGAGYHSESKAKEYKHVCKRACQKAIEKLQAGALATDAVTAALVELEDSPFTNAGMGSNLNLLGEIECDASIMDGKSLNFGAVGALSGIKNPVSVANRLLCEGQKGKLSAGRIPPCFLVGEGAYRWAVDHGIPSCP

Legend:
[1] = molecular target: the molecule itself; experiment: dynamic light scattering
[2] = molecular target: the molecule itself; experiment: dynamic light scattering; remark: listed apart in the source
[3] = molecular target: the molecule itself; experiment: negative staining electron microscopy
[4] = molecular target: the molecule itself; experiment: crystal structure

Protein	stoichiometry N [1]	stoichiometry N [2]	stoichiometry N [3]	binding result [4]
B1	6	4	2	
B2				binds
